The nature of the data set: total protein half-life in vivo (active degradation + dilution); higher = more stable protein.
Where [1] appears, read: E. coli NCM3722 delta-clpP delta-lon delta-hslV, growth: N-lim chemostat, doubling time 6 h.
[2] abbreviates: E. coli NCM3722 delta-clpP, growth: N-lim chemostat, doubling time 6 h.
The mark [3] stands for this setting: E. coli NCM3722 delta-smpB, growth: N-lim chemostat, doubling time 6 h.
[4] abbreviates: wild type E. coli NCM3722, growth: C-lim chemostat, doubling time 6 h.
Where [5] appears, read: wild type E. coli NCM3722, growth: C-lim chemostat, doubling time 12 h.
[6] abbreviates: wild type E. coli NCM3722, growth: N-lim chemostat, doubling time 6 h.
The mark [7] stands for this setting: wild type E. coli NCM3722, growth: N-lim chemostat, doubling time 12 h.
Where [8] appears, read: wild type E. coli NCM3722, growth: P-lim chemostat, doubling time 6 h.
Setting [9] is: wild type E. coli NCM3722, growth: P-lim chemostat, doubling time 12 h.
Where [10] appears, read: E. coli NCM3722 delta-hslV, growth: N-lim chemostat, doubling time 6 h.
Setting [11] is: E. coli NCM3722 delta-lon, growth: N-lim chemostat, doubling time 6 h.
[12] abbreviates: wild type E. coli NCM3722, growth: C-lim chemostat, doubling time 3 h.

± gives the standard deviation of the averaged measurements.

Turning to “MKIFSVRQTVLPALLVLSPVVFAADEQTMIVSAAPQVVSELDTPAAVSVVDGEEMRLATPRINLSESLTGVPGLQVQNRQNYAQDLQLSIRGFGSRSTYGIRGIRLYVDGIPATMPDGQGQTSNIDLSSVQNVEVLRGPFSALYGNASGGVMNVTTQTGQQPPTIEASSYYGSFGSWRYGLKATGATGDGTQPGDVDYTVSTTRFTTHGYRDHSGAQKNLANAKLGVRIDEASKLSLIFNSVDIKADDPGGLTKAEWKANPQQAPRAEQYDTRKTIKQTQAGLRYERSLSSRDDMSVMMYAGERETTQYQSIPMAPQLNPSHAGGVITLQRHYQGIDSRWTHRGELGVPVTFTTGLNYENMSENRKGYNNFRLNSGMPEYGQKGELRRDERNLMWNIDPYLQTQWQLSEKLSLDAGVRYSSVWFDSNDHYVTPGNGDDSGDASYHKWLPAGSLKYAMTDAWNIYLAAGRGFETPTINELSYRADGQSGMNLGLKPSTNDTIEIGSKTRIGDGLLSLALFQTDTDDEIVVDSSSGGRTTYKNAGKTRRQGAELAWDQRFAGDFRVNASWTWLDATYRSNVCNEQDCNGNRMPGIARNMGFASIGYVPEDGWYAGTEARYMGDIMADDENTAKAPSYTLVGLFTGYKYNYHNLTVDLFGRVDNLFDKEYVGSVIVNESNGRYYEPSPGRNYGVGMNIAWRFE”, the “total protein half-life in vivo” value is, setting by setting: under setting [1], 5.463 ± 0.043 h; under setting [2], 6.48 ± 0.072 h; under setting [3], 5.98 ± 0.44 h; under setting [4], 6.21 ± 0.33 h; under setting [5], 13.6 ± 1 h; under setting [6], 6.02 ± 0.5 h. Moreover, the “total protein half-life in vivo” value by setting is: under setting [7], 12.9 ± 0.56 h; under setting [8], 5.34 ± 0.089 h; under setting [9], over 16 h.
“MFIGFDYGTANCSVAVMRDGKPHLLKMENDSTLLPSMLCAPTREAVSEWLYRHHDVPADDDETQALLRRAIRYNREEDIDVTAKSVQFGLSSLAQYIDDPEEVWFVKSPKSFLGASGLKPQQVALFEDLVCAMMLHIRQQAQAQLPEAITQAVIGRPINFQGLGGDEANTQAQGILERAAKRAGFRDVVFQYEPVAAGLDYEATLQEEKRVLVVDIGGGTTDCSLLLMGPQWRSRLDREASLLGHSGCRIGGNDLDIALAFKNLMPLLGMGGETEKGIALPILPWWNAVAINDVPAQSDFYSSANGRLLNDLVRDAREPEKVALLQKVWRQRLSYRLVRSAEECKIALSSVAETRASLPFISNELATLISQRGLESALSQPLTRILEQVQLALDNAQEKPDVIYLTGGSARSPLIKKALAEQLPGIPIAGGDDFGSVTAGLARWAEVVFR”: the “total protein half-life in vivo” value came to 4.24 ± 0.21 h under setting [1]; 3.46 ± 0.21 h under setting [2]; 3.42 ± 0.99 h under setting [10]; 3.061 ± 0.019 h under setting [11]; 2.69 ± 0.13 h under setting [3]; 2.8 ± 0.11 h under setting [12]. Also, the “total protein half-life in vivo” value under setting [4] was determined as 5.13 ± 0.5 h; the “total protein half-life in vivo” value under setting [5] turned out to be 9.46 ± 2.2 h; the “total protein half-life in vivo” value under setting [6] turned out to be 3.1 h; the “total protein half-life in vivo” value under setting [7] was determined as 3.87 h; the “total protein half-life in vivo” value under setting [8] was 4.93 ± 0.058 h; the “total protein half-life in vivo” value under setting [9] is 7.96 ± 0.29 h.
Turning to “METFNSLFMVSPLLLGVLFFVAMLAGFIDSIAGGGGLLTIPALMAAGMSPANALATNKLQACGGSISATIYFIRRKVVSLSDQKLNIAMTFVGSMSGALLVQYVQADVLRQILPILVICIGLYFLLMPKLGEEDRQRRMYGLPFALIAGGCVGFYDGFFGPAAGSFYALAFVTLCGFNLAKATAHAKLLNATSNIGGLLLFILGGKVIWATGFVMLVGQFLGARMGSRLVLSKGQKLIRPMIVIVSAVMSAKLLYDSHGQEILHWLGMN [P0AD30]”, the “total protein half-life in vivo” value came to 6.4 h under setting [1]; 6.29 ± 0.21 h under setting [11]; 6.13 h under setting [3]; 5.18 ± 0.11 h under setting [4]; 4.37 h under setting [6]; 10 ± 3.5 h under setting [9].
Take “MNNREKEILAILRRNPLIQQNEIADMLQISRSRVAAHIMDLMRKGRIKGKGYILTEQEYCVVVGTINMDIRGMADIRYPQSASHPGTIHCSAGGVGRNIAHNLALLGRDVHLLSVIGDDFYGEMLLEETRRAGVNVSGCVRLHGQSTSTYLAIANRDDQTVLAINDTHLLEQLTPQLLNGSRDLLRHAGVVLADCNLTAEALEWVFTLADEIPVFVDTVSEFKAGKIKHWLAHIHTLKPTLPELEILWGQAITSDADRNTAVNALHQQGVQQLFVYLPDESVYCSEKDGEQFLLTAPAHTTVDSFGADDGFMAGLVYSFLEGYSFRDSARFAVACAAISRASGSLNNPTLSADNALSLVPMV”: the “total protein half-life in vivo” value under setting [1] was 5.83 ± 0.3 h.
For “MNKETQPIDRETLLKEANKIIREHEDTLAGIEATGVTQRNGVLVFTGDYFLDEQGLPTAKSTAVFNMFKHLAHVLSEKYHLVD [P0AB61]”, the “total protein half-life in vivo” value worked out at 5.24 ± 0.27 h under setting [1]; 3.59 h under setting [2]; 3.12 ± 0.036 h under setting [10]; 3.65 ± 0.14 h under setting [11]; 2.91 ± 0.23 h under setting [3]; 2.64 h under setting [12]. The “total protein half-life in vivo” value under setting [4] came out at 4.89 ± 0.3 h; the “total protein half-life in vivo” value under setting [5] was 9.62 ± 3.9 h; the “total protein half-life in vivo” value under setting [6] was determined as 2.5 ± 0.063 h; the “total protein half-life in vivo” value under setting [7] was determined as 4.72 h; the “total protein half-life in vivo” value under setting [8] was determined as 6.02 h.
For “MRTISYSEARQNLSATMMKAVEDHAPILITRQNGEACVLMSLEEYNSLEETAYLLRSPANARRLMDSIDSLKSGKGTEKDIIE”, the “total protein half-life in vivo” value runs as follows: under setting [1], 2.74 h; under setting [2], 2 ± 0.78 h; under setting [10], 2.66 ± 0.31 h; under setting [3], 3.15 h; under setting [12], over 4 h; under setting [4], 1.57 ± 0.23 h. For the same sequence, the “total protein half-life in vivo” value was 2.2 ± 1.2 h under setting [5]; 1.8 h under setting [6]; 2.86 ± 0.17 h under setting [7]; 1.67 h under setting [8]; 3.61 ± 0.31 h under setting [9].
“MIKKIFALPVIEQISPVLSRRKLDELDLIVVDHPQVKASFALQGAHLLSWKPAGEEEVLWLSNNTPFKNGVAIRGGVPVCWPWFGPAAQQGLPAHGFARNLPWTLKSHHEDADGVALTFELTQSEETKKFWPHDFTLLAHFRVGKTCEIDLESHGEFETTSALHTYFNVGDIAKVSVSGLGDRFIDKVNDAKENVLTDGIQTFPDRTDRVYLNPQDCSVINDEALNRIIAVGHQHHLNVVGWNPGPALSISMGDMPDDGYKTFVCVETAYASETQKVTKEKPAHLAQSIRVAKR”: the “total protein half-life in vivo” value under setting [1] is 5.78 ± 0.46 h; the “total protein half-life in vivo” value under setting [2] was 5.24 ± 0.6 h; the “total protein half-life in vivo” value under setting [10] worked out at 6.17 ± 1.1 h; the “total protein half-life in vivo” value under setting [11] was 5.11 ± 0.53 h; the “total protein half-life in vivo” value under setting [3] came out at 5.67 ± 0.29 h; the “total protein half-life in vivo” value under setting [5] was 13 ± 1.6 h. The “total protein half-life in vivo” value is 5.42 ± 0.3 h under setting [6], 13.7 ± 2.5 h under setting [7], 5.72 ± 0.72 h under setting [8] and 12.9 ± 1.8 h under setting [9].
For “MGHKPLYRQIADRIREQIARGELKPGDALPTESALQTEFGVSRVTVRQALRQLVEQQILESIQGSGTYVKEERVNYDIFQLTSFDEKLSDRHVDTHSEVLIFEVIPADDFLQQQLQITPQDRVWHVKRVRYRKQKPMALEETWMPLALFPDLTWQVMENSKYHFIEEVKKMVIDRSEQEIIPLMPTEEMSRLLNISQTKPILEKVSRGYLVDGRVFEYSRNAFNTDDYKFTLIAQRKSSR”, the “total protein half-life in vivo” value stood at 5.56 ± 0.42 h under setting [1]; 5.47 ± 0.059 h under setting [2]; 5.26 ± 0.32 h under setting [10]; 4.83 ± 0.42 h under setting [11]; 4.99 ± 0.07 h under setting [3]; 2.985 ± 0.0092 h under setting [12]. For the same sequence, the “total protein half-life in vivo” value reads like this: under setting [6], 5.354 ± 0.041 h; under setting [7], 9.53 ± 0.028 h; under setting [8], 5.8 ± 0.12 h; under setting [9], 12.1 ± 1.1 h.
